The test concerns the target thioredoxin (TRX), endogenous in bovine aortic endothelial cells (BAEC) (bovine) (UniProt O97680). The test can be described thus: cell-based or functional assay.

Here are results for one substance from patent US20110097317A1.

Chain of UniProt O97680 (O97680 2-105 limits assumed): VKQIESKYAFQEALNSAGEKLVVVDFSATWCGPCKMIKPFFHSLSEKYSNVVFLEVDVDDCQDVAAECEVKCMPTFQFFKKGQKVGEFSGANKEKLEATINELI

Consider “Thioredoxin interacting protein (TXNIP) over-expressed from pcDNA3.1-TXNIP in BAEC”, for which the TNF-mediated activation of JNK (phospho-specific immunoblot) in BAEC over-expressing TXNIP worked out at 33% and the TNF-mediated activation of p38 (phospho-specific immunoblot) in BAEC over-expressing TXNIP is 23%.
